# Experimental data reported in US20140294817A1 (LEUKOSIGHT, published 2014).
# T1: Fcγ-receptor III (mice, UniProt P08508 31-261)
# T1 construct: whole, on cells; HeLa cells transfected with an FcγRIII plasmid, RFP-tagged; also called FcγRIII; not shown: red fluorescent protein tag (RFP) attached to the intracellular portion
# T1 sequence (looked up): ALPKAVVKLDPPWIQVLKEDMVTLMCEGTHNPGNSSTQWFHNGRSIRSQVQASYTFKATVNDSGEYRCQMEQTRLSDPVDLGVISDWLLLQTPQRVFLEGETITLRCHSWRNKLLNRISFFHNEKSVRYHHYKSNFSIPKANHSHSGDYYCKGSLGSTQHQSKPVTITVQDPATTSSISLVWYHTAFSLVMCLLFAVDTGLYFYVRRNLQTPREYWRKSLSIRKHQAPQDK
# T2: Fcγ-receptor I (mice, UniProt P26151 25-404)
# T2 construct: whole, on cells; HeLa cells transfected with an FcγRI plasmid, RFP-tagged; also called FcγRI; not shown: red fluorescent protein tag (RFP) attached to the intracellular portion
# T2 sequence (looked up): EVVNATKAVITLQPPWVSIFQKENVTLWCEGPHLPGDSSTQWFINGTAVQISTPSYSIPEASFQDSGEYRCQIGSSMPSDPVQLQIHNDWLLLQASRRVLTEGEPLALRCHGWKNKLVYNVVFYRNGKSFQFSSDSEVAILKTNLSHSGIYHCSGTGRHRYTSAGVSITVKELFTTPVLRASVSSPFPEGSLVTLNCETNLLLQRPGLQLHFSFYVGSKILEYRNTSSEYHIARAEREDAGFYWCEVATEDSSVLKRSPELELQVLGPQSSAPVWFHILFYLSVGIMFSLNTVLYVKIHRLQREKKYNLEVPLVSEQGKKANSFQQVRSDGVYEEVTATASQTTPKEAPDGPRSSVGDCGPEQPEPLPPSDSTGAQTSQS
# T3: Fcγ-receptor IV (mice)
# T3 construct: whole, on cells; HeLa cells transfected with an FcγRIV plasmid, RFP-tagged; also called FcγRIV
# T3 sequence (A0A0B4J1G0 whole entry, looked up): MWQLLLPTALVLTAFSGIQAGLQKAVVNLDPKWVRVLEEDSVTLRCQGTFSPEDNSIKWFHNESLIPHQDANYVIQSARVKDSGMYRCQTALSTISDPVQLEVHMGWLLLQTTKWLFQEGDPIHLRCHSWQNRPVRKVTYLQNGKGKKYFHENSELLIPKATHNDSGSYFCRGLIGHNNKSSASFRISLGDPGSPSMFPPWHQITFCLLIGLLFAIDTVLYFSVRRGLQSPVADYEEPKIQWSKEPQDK
# T4: Fcγ-receptor IIb (mice, UniProt P08101 30-330)
# T4 construct: whole, on cells; HeLa cells transfected with an FcγRIIb plasmid, RFP-tagged; also called FcγRIIb; not shown: red fluorescent protein tag (RFP) attached to the intracellular portion
# T4 sequence (looked up): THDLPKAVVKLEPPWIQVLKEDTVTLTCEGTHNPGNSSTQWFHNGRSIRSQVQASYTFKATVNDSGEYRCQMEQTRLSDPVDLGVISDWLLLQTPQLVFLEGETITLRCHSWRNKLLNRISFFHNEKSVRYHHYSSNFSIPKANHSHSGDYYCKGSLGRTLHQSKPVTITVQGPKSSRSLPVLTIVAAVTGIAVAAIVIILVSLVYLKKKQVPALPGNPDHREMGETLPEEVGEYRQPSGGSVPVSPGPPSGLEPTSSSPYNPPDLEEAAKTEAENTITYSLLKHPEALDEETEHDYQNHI
# Legend:
# [1] = target: T1, Fcγ-receptor III; experiment: flow cytometry saturation binding on HeLa cells expressing RFP-tagged FcγRIII (FIG. 61C, left panel)
# Source text: (§1) There are four Fc-gamma receptors (FcγRs) in mice including: Fcγ-receptor I, Fcγ-receptor III, Fcγ-receptor IV, and Fcγ-receptor IIb. The genes for each of the Fcγ-receptor I, Fcγ-receptor III, Fcγ-receptor IV, and Fcγ-receptor IIb were cloned into four separate plasmids. […] A red fluorescent protein tag (RFP) is attached to the intracellular portion of the FcγR (FIG. 56A). Thus, binding to the FcγR of a transfected HeLa cell will result in a signal transduction that causes the cells to fluoresce red, which may be measured by flow cytometry.
# (§2) Polypeptides comprising a first and second Fc fragment of rabbit IgG in dimeric form and whole rabbit IgG were quantified by ELISA, using the whole rabbit IgG as the standards. HeLa cells that express FcγRI, HeLa cells that express FcγRIIb, HeLa cells that express FcγRIII, and HeLa cells that express FcγRIV as described in Example 13 were stained with 2-fold series diluted either with polypeptides comprising a first and second Fc fragment of rabbit IgG in dimeric form or whole rabbit IgG. The cells were then stained with Zenon Alexa Fluor 488 rabbit IgG labeling kits. […] The HeLa cells that express FcγRI, HeLa cells that express FcγRIIb, HeLa cells that express FcγRIII, and HeLa cells that express FcγRIV were gated by red fluorescence (RFP); and the mean fluorescence of Alexa Fluor was measured for the Saturation Binding Curves (FIGS. 61A-D).
# [2] = target: T2, Fcγ-receptor I; experiment: flow cytometry saturation binding on HeLa cells expressing RFP-tagged FcγRI (FIG. 61A, left panel)
# Source text: as §1, §2
# [3] = target: T3, Fcγ-receptor IV; experiment: flow cytometry saturation binding on HeLa cells expressing FcγRIV; reference rabbit IgG
# Source text: as §1, §2
# [4] = target: T3, Fcγ-receptor IV; experiment: flow cytometry saturation binding on HeLa cells expressing RFP-tagged FcγRIV (FIG. 61D, left panel)
# Source text: as §1, §2
# [5] = target: T4, Fcγ-receptor IIb; experiment: flow cytometry saturation binding on HeLa cells expressing RFP-tagged FcγRIIb (FIG. 61B, left panel)
# Source text: as §1, §2
# [6] = target: T4, Fcγ-receptor IIb; experiment: flow cytometry saturation binding on HeLa cells expressing FcγRIIb; reference rabbit IgG
# Source text: as §1, §2
# [7] = target: T2, Fcγ-receptor I; experiment: flow cytometry saturation binding on HeLa cells expressing FcγRI; reference rabbit IgG
# Source text: as §1, §2
# [8] = target: T1, Fcγ-receptor III; experiment: flow cytometry saturation binding on HeLa cells expressing FcγRIII; reference rabbit IgG
# Source text: as §1, §2
binder,measurement,setting,value
"polypeptide comprising a first and second Fc fragment of rabbit IgG in dimeric form (Fc fusion, The supernatants hold monomeric and dimeric forms; also called dimeric polypeptides; polypeptides in dimeric form) GGSHHHHHHGMASMTGGQQMGRDLYDDDDKAPSTCSKPTCPPPELLGGPSVFIFPPKPKDTLMISRTPEVTCVVVDVSQDDPEVQFTWYINNEQVRTARPPLREQQFNSTIRVVSTLPIAHQDWLRGKEFKCKVHNKALPAPIEKTISKARGQPLEPKVYTMGPPREELSSRSVSLTCMINGFYPSDISVEWEKNGKAEDNYKTTPAVLDSDGSYFLYSKLSVPTSEWQRGDVFTCSVMHEALHNHYTQKSISRSPGKDIVRSSKPTCPPPELLGGPSVFIFPPKPKDTLMISRTPEVTCVVVDVSQDDPEVQFTWYINNEQVRTARPPLREQQFNSTIRVVSTLPIAHQDWLRGKEFKCKVHNKALPAPIEKTISKARGQPLEPKVYTMGPPREELSSRSVSLTCMINGFYPSDISVEWEKNGKAEDNYKTTPAVLDSDGSYFLYSKLSVPTSEWQRGDVFTCSVMHEALHNHYTQKSISRSPGK",Kd,[1],≤ 10.4 nM
same,Kd,[2],≤ 3.5 nM
same,fold enhancement of binding against rabbit IgG,[3],≥ 191 fold
same,Kd,[4],≤ 6.3 nM
same,Kd,[5],≤ 9.8 nM
same,fold enhancement of binding against rabbit IgG,[6],≥ 61.7 fold
same,fold enhancement of binding against rabbit IgG,[7],≥ 57.5 fold
same,fold enhancement of binding against rabbit IgG,[8],≥ 223 fold
